Results as given in patent US12441811B2, “Compositions and methods for treating serpin B13 disorders” (REGENTS OF THE UNIVERSITY OF MINNESOTA, priority 2019, dated 2025).
Entries after “also recorded” stand apart in the source; their conditions may differ.

Legend:
[1] = test system: catL; experiment: catL activity in vivo with activity-based probe ProSense 680; design: species or system mouse
Experimental: CatL has been implicated as a serpinB13 protease target. To examine the consequences of inhibiting serpinB13 using a mAb (clone B29), the catalytic activity of catL was measured. […] To measure catL activity in vivo, the activity-based probe, ProSense 680, was used. […] This increase was limited to the pancreas in wild-type Balb/c mice and was not observed in the liver, where serpinB13 is not expressed, or in the pancreas of catL-deficient Balb/c mice.

[2] = test system: Ngn3+ endocrine progenitor cells; experiment: Ngn3+ cells in embryonic pancreas explants (E12.5) cultured in vitro; type: cell-based, mouse; conditions: for number of CK19+ epithelial cells: E12.5 explants with mAb vs control Ab
Experimental: Isolation and culture of embryonic pancreas explants. The isolation and culture of embryonic pancreas explants was performed as described elsewhere, with minor modifications.
Processing of pancreatic tissue for immunofluorescence microscopy. The pancreatic tissues were isolated and fixed either overnight (adult pancreases), or for one hour (embryonic pancreas explants), in 2% PFA (pH 7.4), followed by a two-step saturation process: first in a 30% sucrose solution in PBS and then in optimal cutting temperature (OCT) compound. After complete saturation, the tissues were imbedded in OCT using Cryomold and then snap frozen in an ethanol/dry ice bath. The OCT blocks were serially cut through the entire organ to obtain representative sections every 600 μm (6 to 8 sections per adult pancreas), 50 μm (12 to 14 sections per E16.5 embryonic pancreas), 35 μm (10 to 12 sections per E14.5 embryonic pancreas), or 15 μm (10 to 12 sections per E12.5 embryonic pancreas cultured for 1 to 3 days). For the embryonic linage tracing experiments, three largest sections were taken for the analysis. For all other experiments involving immunofluorescence microscopy, all obtained sections were analyzed. […]
(§1) The sections from the pancreases of embryos at age E14.5 and E16.5, and newborn pups (OP), were stained with anti-Ngn3 antibody to determine the total number of endocrine progenitors cells for all sections per explant combined (FIG. 9G, FIG. 17A). Alternatively, the sections representing the pancreases of embryos at age E12.5 (which are considerably smaller) were stained with both anti-Ngn3 and anti-CK19 antibodies to determine the fraction of CK19-positive area that was occupied by Ngn3− positive staining (FIGS. 9D, 10A, 10C, 12D, 12G, 12J and FIGS. 15A, 20B). The following formula was used to adjust for any differences in the pancreas size: (Ngn3^+ cell number/μm^2 of CK19^+ cells)×10^5.
Image analysis. Embryonic images were processed with a plugin-Trainable Weka Segmentation v3.2.28 (Hamilton, New Zealand) for ImageJ v.1.52jv software. To classify and quantify the images in unbiased fashion, we defined the following four classes for the analysis: Ngn3^+ cells, the clusters of cytokeratin 19^+ cells, the negatively stained areas, and background (e.g., the area outside of tissue sample). Alternatively, the Visiopharm version 6.0 software (Visiopharm, Hoerholm, Denmark) with Author module was used to create applications to outline Ngn3^+ cells or double positive cells expressing YFP and insulin using preprocessing and postprocessing steps, when necessary. In addition, the Engine module of the Visiophram module was used to execute created applications and unbiasedly analyze the images. For the unbiased quantitative analysis of β-cells and islets in the whole pancreatic sections, Visiopharm Author module was trained to recognize insulin-positive β-cell clusters with diameter greater than 50 μm as well as negatively stained section area. In all studies involving microscopy the treatment assignments were blinded to investigators who performed data analysis.

[3] = test system: Ngn3+ endocrine progenitor cells; experiment: Ngn3+ cells in embryonic pancreas after antibody injection into pregnant mice; type: in vivo, mouse; conditions: for number of Ngn3+ cells in the embryonic pancreas: pregnant mice i.p. 50 μg daily E10.5 through E13.5, E16.5 and birth, vs control Ab
Experimental: The control mouse mAb (clone TIB92) was from ATCC (Manassas, VA, USA). The recombinant human control Ab (cat. No 403502) was from BioLegend (San Diego, CA). In most of the experiments, anti-serpinB13 mAb (clone B29) or control mouse mAb was injected i.p. into pregnant female mice at 50 μg for four consecutive days, starting at gestational day E10.5 (total dose of 200 μg). In the lineage tracing experiments in adult mice, B29 was injected i.p. for 7 days at 100 μg/injection during the first week after STZ treatment (total dose of 700 μg).
Processing of pancreatic tissue for immunofluorescence microscopy. The pancreatic tissues were isolated and fixed either overnight (adult pancreases), or for one hour (embryonic pancreas explants), in 2% PFA (pH 7.4), followed by a two-step saturation process: first in a 30% sucrose solution in PBS and then in optimal cutting temperature (OCT) compound. After complete saturation, the tissues were imbedded in OCT using Cryomold and then snap frozen in an ethanol/dry ice bath. The OCT blocks were serially cut through the entire organ to obtain representative sections every 600 μm (6 to 8 sections per adult pancreas), 50 μm (12 to 14 sections per E16.5 embryonic pancreas), 35 μm (10 to 12 sections per E14.5 embryonic pancreas), or 15 μm (10 to 12 sections per E12.5 embryonic pancreas cultured for 1 to 3 days). For the embryonic linage tracing experiments, three largest sections were taken for the analysis. For all other experiments involving immunofluorescence microscopy, all obtained sections were analyzed.
as §1
Image analysis. […] To classify and quantify the images in unbiased fashion, we defined the following four classes for the analysis: Ngn3^+ cells, the clusters of cytokeratin 19^+ cells, the negatively stained areas, and background (e.g., the area outside of tissue sample). […] For the unbiased quantitative analysis of β-cells and islets in the whole pancreatic sections, Visiopharm Author module was trained to recognize insulin-positive β-cell clusters with diameter greater than 50 μm as well as negatively stained section area. […]

[4] = test system: pancreatic islets; conditions: cited from earlier work

B1: B29: mouse monoclonal antibody to serpin B13, clone B29; heavy chain SEQ ID NO:14, kappa light chain SEQ ID NO:16 (antibody, V domains shown)
VH: QIQLVQSGPELKKPGETVKISCKASGYTFTTYGMSWVKQAPGKGLKWMGWINTYSGMPTYADDFKGRFAFSLETSATTAYLQINNLKNEDTATYFCARPLLGLDYWGQGTTLTVSS
VL: DIVMTQTPLSLSVTIGQPASISCKSSQSLLHSDGKTFLNWFLQRPGQSPKLLIYLVSKLESGIPDRFSGSGSGTDFTLKISRVEVEDLGVYYCLQHTHFPLTFGAGTKLEIK
increase in catL activity in the pancreas of catL-deficient mice ([1]; catL-deficient Balb/c mice): not observed | increase in catL activity in the liver ([1]; liver, where serpinB13 is not expressed): not observed | catL activity ([1]; summary statement, setting not specified): augmented | catL activity in the intact pancreas ([1]; wild-type Balb/c mice, after injection of mAb, ProSense 680): significant increase | Ngn3+ cell population, upregulation by mAb ([2]; CatL-deficient embryonic pancreas explants, 48-hour culture): completely refractory to upregulation | number of CK19+ epithelial cells [2]: remained unchanged | number of CK19+ epithelial cells ([2]; listed as mAb): did not change | number of Ngn3+ cells ([2]; E12.5 explants, antibody at 1 μg/mL vs control Ab): significant increase | fractions of pancreatic microscopic sections positively stained with anti-insulin antibody ([3]; E16.5 embryos exposed in vivo vs control Ab): significantly higher fractions | Ngn3 protein levels ([3]; Western blot, E16.5, pregnant mice i.p. 50 μg daily E10.5-E13.5): robust increase | number of Ngn3+ cells in the embryonic pancreas [3]: increased; also recorded: significant increase; also recorded: robust increase | number of Ngn3+ cells in the embryonic pancreas ([3]; listed as mAb): robust increase | recovery from diabetes ([4]; coadministration with a suboptimal dose of anti-CD3 mAb): accelerated | Reg gene expression ([4]; injection): enhanced | beta cell mass ([4]; injection): increase | beta cell proliferation ([4]; injection): enhanced | generation of pancreatic islets ([4]; injection): ~80 pancreatic islets per animal | islet inflammation ([4]; mice, mAb alone): decreased
